Abundance fitness data for 45 variants are collected here from the Human Domainome abundance scans (Beltran et al. 2025).

± gives the uncertainty stated by the source.

To fix the notation:
B1: CD2-associated protein, residues 1 to 59; numbered along this chain, Q9Y5K6 (parent)
chain: MVDYIVEYDYDAVHDDELTIRVGEIIRNVKKLQEEGWLEGELNGRRGMFPDNFVKEIKR

This data set covers variants of B1. Description: abundance fitness (aPCA) (normalised: wild type 0, dead -1); higher = more abundant; growth selection in yeast, the domain comes from the species named. The settings on record: Homo sapiens.
MVDYIVEYDYDAVHDDELTIRVGEIIRNVKKLQEEGWLEGELNGRRGMFPINFVKEIKR [D51I]: the abundance fitness is 0.092 ± 0.11.

For the variant MVDYIVEYDYDAVHDDELTIRVGEIIRNVKKLQEEGWLEGELNGRRGMFPPNFVKEIKR [D51P], the abundance fitness was -0.092 ± 0.083.

Consider MVDYIVEYDYDAVHDDELTIRVGEIIRNVKKLQEEGWLEGELNGRRGMFPMNFVKEIKR [D51M], for which the abundance fitness is -0.136 ± 0.41.

Take MVDYIYEYDYDAVHDDELTIRVGEIIRNVKKLQEEGWLEGELNGRRGMFPDNFVKEIKR [V6Y]: the abundance fitness was -0.52 ± 0.14.

Regarding MVDYIGEYDYDAVHDDELTIRVGEIIRNVKKLQEEGWLEGELNGRRGMFPDNFVKEIKR [V6G], the abundance fitness was -0.438 ± 0.066.

For the variant YVDYIVEYDYDAVHDDELTIRVGEIIRNVKKLQEEGWLEGELNGRRGMFPDNFVKEIKR [M1Y], the abundance fitness is -0.375 ± 0.37.

Consider MVDYIVEYDYDAVHDDELTIRVGEIIRNVKKLQEEGWLEGELNGRRGMFADNFVKEIKR [P50A], for which the abundance fitness is -0.502 ± 0.16.

In the case of MVDYIVEYDYDAVHDDELTIRVGEIIRNVKKLQEEGWLEGELNGRRGMFHDNFVKEIKR [P50H], the abundance fitness is -0.149 ± 0.17.

With MVDYIVEYDYDAVHDDELTIRVGEIIRNVKKLQEEGWLEGELNGRRGMFTDNFVKEIKR [P50T], the abundance fitness was -0.746 ± 0.24.

On to MVDYIVEYDYDAVHDDELTIRVGEIIRNVKKLQEEGWLEGELNGRRGMFKDNFVKEIKR [P50K], for which the abundance fitness was -0.184 ± 0.28.

In the case of MVDYIVEYDYDAVHDDELTIRVGEIIRNVKKLQEEGWLEGECNGRRGMFPDNFVKEIKR [L42C], the abundance fitness is -0.012 ± 0.13.

Regarding MVDYIVEYDYDAVHDDELTIRVGEIIRNVKKLQEEGWLEGEANGRRGMFPDNFVKEIKR [L42A], the abundance fitness was -0.327 ± 0.15.

As to MVDYIVEYDYDAVHDDELTIRVGEIIRNVKKLQEEGWLEGELNGRRGMFPDNFVKPIKR [E56P], the abundance fitness was found to be 0.06 ± 0.19.

Turning to MVDYIVEYDYDAVHDDELTIRWGEIIRNVKKLQEEGWLEGELNGRRGMFPDNFVKEIKR [V22W], the abundance fitness was -0.703 ± 0.47.

For MVDYIVEYDYDCVHDDELTIRVGEIIRNVKKLQEEGWLEGELNGRRGMFPDNFVKEIKR [A12C], the abundance fitness is -0.35 ± 0.14.

On to MVDYIVEYDYDVVHDDELTIRVGEIIRNVKKLQEEGWLEGELNGRRGMFPDNFVKEIKR [A12V], for which the abundance fitness is -1.02 ± 0.24.

For the variant MVDYIVEYDYDAVHDDELTIRVGEIIRNVKKLQEEGWSEGELNGRRGMFPDNFVKEIKR [L38S], the abundance fitness was 0.003 ± 0.074.

Regarding MVDYIVEYDYDAVHDDELTIRVGEIIRNVKKLQEEGWLEGELNGRRGMFPDNFVKERKR [I57R], the abundance fitness is -0.007 ± 0.25.

Take MVDYIVVYDYDAVHDDELTIRVGEIIRNVKKLQEEGWLEGELNGRRGMFPDNFVKEIKR [E7V]: the abundance fitness came to 0.008 ± 0.072.

As to MVDYIVEYDYDAVHDDMLTIRVGEIIRNVKKLQEEGWLEGELNGRRGMFPDNFVKEIKR [E17M], the abundance fitness was -0.534 ± 0.18.

As for MVDYIVEYDYDAVHDDGLTIRVGEIIRNVKKLQEEGWLEGELNGRRGMFPDNFVKEIKR [E17G], the abundance fitness is -0.34 ± 0.095.

For MVDYIVEYDYDAVHDDELTIRVGEIIRNVKKLQEEGWLEGRLNGRRGMFPDNFVKEIKR [E41R], the abundance fitness is -0.306 ± 0.09.

As to MVDYIVEYDYDAVHDDELTIRVGEIIRNVKKLQEEGWLEGALNGRRGMFPDNFVKEIKR [E41A], the abundance fitness was -0.388 ± 0.33.

In the case of MVDYIVEYDYDAVHDDELTFRVGEIIRNVKKLQEEGWLEGELNGRRGMFPDNFVKEIKR [I20F], the abundance fitness is -0.373 ± 0.13.

As for MVDYIVEYDYDAVHDDELTIRVGEIIRNVKCLQEEGWLEGELNGRRGMFPDNFVKEIKR [K31C], the abundance fitness was found to be 0.109 ± 0.34.

Take MVDYIVEYDYDAVHDDELTIRVGEIIRNVKPLQEEGWLEGELNGRRGMFPDNFVKEIKR [K31P]: the abundance fitness turned out to be 0.089 ± 0.12.

MVDYIVEYDYDAVHDDELTIRVGEIIRNVKYLQEEGWLEGELNGRRGMFPDNFVKEIKR [K31Y]: the abundance fitness is -0.159 ± 0.44.

Consider MVDYIVEYDYDAVHDDELTIRVGEIISNVKKLQEEGWLEGELNGRRGMFPDNFVKEIKR [R27S], for which the abundance fitness was -0.064 ± 0.057.

Turning to MVDKIVEYDYDAVHDDELTIRVGEIIRNVKKLQEEGWLEGELNGRRGMFPDNFVKEIKR [Y4K], the abundance fitness was -0.486 ± 0.15.

With MVDHIVEYDYDAVHDDELTIRVGEIIRNVKKLQEEGWLEGELNGRRGMFPDNFVKEIKR [Y4H], the abundance fitness was -0.554 ± 0.21.

In the case of MKDYIVEYDYDAVHDDELTIRVGEIIRNVKKLQEEGWLEGELNGRRGMFPDNFVKEIKR [V2K], the abundance fitness worked out at 0.086 ± 0.093.

In the case of MHDYIVEYDYDAVHDDELTIRVGEIIRNVKKLQEEGWLEGELNGRRGMFPDNFVKEIKR [V2H], the abundance fitness is -0.486 ± 0.21.

On to MRDYIVEYDYDAVHDDELTIRVGEIIRNVKKLQEEGWLEGELNGRRGMFPDNFVKEIKR [V2R], for which the abundance fitness is -0.084 ± 0.099.

As to MVDYIVEYDYDAVHDDELTIRVGEIIRNVKKLQWEGWLEGELNGRRGMFPDNFVKEIKR [E34W], the abundance fitness was -0.057 ± 0.098.

With MVDYIVEYDYDAVHDDELTIRVGEIIRNVKKLQGEGWLEGELNGRRGMFPDNFVKEIKR [E34G], the abundance fitness is -0.034 ± 0.072.

In the case of MVDYIVEYDYDAVHDDELTIRVGEIIRNVKKLQEEGVLEGELNGRRGMFPDNFVKEIKR [W37V], the abundance fitness is -0.253 ± 0.093.

Regarding MVDYIVEYDYDAVHDDELTIRVGEIIRNVKKLQEEGTLEGELNGRRGMFPDNFVKEIKR [W37T], the abundance fitness was -0.359 ± 0.14.

MVDYIVEYDYDAVHDDELTIRVGEIIRNVKKLQEEGRLEGELNGRRGMFPDNFVKEIKR [W37R]: the abundance fitness was -0.298 ± 0.14.

As for MVDYIVEYDYDAVHDDELTIRVGEIIRDVKKLQEEGWLEGELNGRRGMFPDNFVKEIKR [N28D], the abundance fitness amounted to 0.04 ± 0.091.

Consider MVDYIVEYDYDAVHKDELTIRVGEIIRNVKKLQEEGWLEGELNGRRGMFPDNFVKEIKR [D15K], for which the abundance fitness is -0.078 ± 0.14.

Take MVDYIVEYDYDAVHYDELTIRVGEIIRNVKKLQEEGWLEGELNGRRGMFPDNFVKEIKR [D15Y]: the abundance fitness was -0.204 ± 0.11.

As for MVDYIVEYDYDAVHDDELTIRVGEIIRNVKKLVEEGWLEGELNGRRGMFPDNFVKEIKR [Q33V], the abundance fitness is -0.317 ± 0.078.

Regarding MVDYIVEYDYDAVHDDELTIRVGEIIRNVKKLLEEGWLEGELNGRRGMFPDNFVKEIKR [Q33L], the abundance fitness is -0.351 ± 0.068.

Regarding MVDYIVEYDYDAVHDDELTIRVGEIIRNVKKLWEEGWLEGELNGRRGMFPDNFVKEIKR [Q33W], the abundance fitness is -0.474 ± 0.28.

For MVDYIVEWDYDAVHDDELTIRVGEIIRNVKKLQEEGWLEGELNGRRGMFPDNFVKEIKR [Y8W], the abundance fitness was -0.139 ± 0.094.
